Assay results: PMC11270187 (2024)
Like-named read-outs stand apart in the source and are kept apart here.

Key:
[1] = molecular target: T1, HLA-DR on BJAB cells (human (endogenous in BJAB), UniProt P01903 26-254; P01911 30-266); assay: FACS
[2] = molecular target: T2, recombinant HLA-DR (uncleaved) (human, UniProt P01903 28-206; P01911 30-219); assay: BLI; apparent
[3] = molecular target: T1, HLA-DR on BJAB cells; assay: FACS; remark: listed apart in the source
[4] = molecular target: T1, HLA-DR on BJAB cells; assay: FACS; remark: listed apart in the source
[5] = molecular target: T2, recombinant HLA-DR (uncleaved); assay: BLI; apparent; remark: listed apart in the source
[6] = molecular target: T2, recombinant HLA-DR (uncleaved); assay: BLI; apparent; remark: listed apart in the source

Binder	EC50 [1] [nM]	EC50 [4] [nM]	also measured
humanized 44H10 version 17 IgG (antibody, V domains shown) VH: QVTLKESGPVLVKPTETLTLTCTVSGFSLTSYGVHWIRQPPGKALEWLAVIWAGGSISYSTSLMSRLTISKDTSKSQVVLTMTNMDPVDTATYYCARAYGDYVHYAMDYWGQGTLVTVSS VL: DIQMTQSPSSLSASVGDRVTITCRASQEISGYLTWLQQKPGKAPKLLIYAASTLDSGVPSRFSGSGSGTDFTLTISSLQPEDFATYYCLQYTNYPLTFGQGTKLEIK	43		
humanized 44H10 version 21 IgG (V17 with light chain S60K and G66R back-mutations) (antibody, V domains shown) VH: QVTLKESGPVLVKPTETLTLTCTVSGFSLTSYGVHWIRQPPGKALEWLAVIWAGGSISYSTSLMSRLTISKDTSKSQVVLTMTNMDPVDTATYYCARAYGDYVHYAMDYWGQGTLVTVSS VL: DIQMTQSPSSLSASVGDRVTITCRASQEISGYLTWLQQKPGKAPKLLIYAASTLDSGVPKRFSGSRSGTDFTLTISSLQPEDFATYYCLQYTNYPLTFGQGTKLEIK			Kd [2]: 95 nM; EC50 [3]: 14 nM
humanized 44H10 version 22 IgG (antibody, V domains shown) VH: QVQLQESGPGLVKPSETLSLTCTVSGFSLTSYGVHWIRQPPGKGLEWIGVIWAGGSINYNSALMSRVTISKDTSKNQVSLKLSSVTAADTAVYYCARAYGDYVHYAMDYWGQGTLVTVSS VL: DIQMTQSPSSLSASVGDRVTITCRASQEISGYLTWLQQKPGKAPKLLIYAASTLDSGVPKRFSGSRSGTDFTLTISSLQPEDFATYYCLQYTNYPLTFGQGTKLEIK		1.7	Kd [5]: 29 nM
parental 44H10 IgG (antibody, V domains shown) VH: QVQLKESGPGLVAPSQSLSITCTVSGFSLTSYGVHWVRQPPGKGLEWLGVIWAGGSINYNSALMSRLSISKDNFKSQVFLKMSSLQTDDTAMYYCARAYGDYVHYAMDYWGQGTSVTASS VL: DIQMTQSPSSLSASLGQRVSLTCRASQEISGYLTWLQQKPDGTIKRLVYAASTLDSGVPKRFSGSRSGSDYSLTISSLESEDFADYYCLQYTNYPLTFGAGTKLELK	0.8	1	Kd [6]: 2.2 nM
